The numbers were not newly measured in patent US20140212945, which cites them from elsewhere.

The term Kd denotes a measure of binding affinity in units of concentration.

The data set concerns the target T1, MBNL1 (muscleblind-like 1 protein) (UniProt Q9NR56).
T1 sequence: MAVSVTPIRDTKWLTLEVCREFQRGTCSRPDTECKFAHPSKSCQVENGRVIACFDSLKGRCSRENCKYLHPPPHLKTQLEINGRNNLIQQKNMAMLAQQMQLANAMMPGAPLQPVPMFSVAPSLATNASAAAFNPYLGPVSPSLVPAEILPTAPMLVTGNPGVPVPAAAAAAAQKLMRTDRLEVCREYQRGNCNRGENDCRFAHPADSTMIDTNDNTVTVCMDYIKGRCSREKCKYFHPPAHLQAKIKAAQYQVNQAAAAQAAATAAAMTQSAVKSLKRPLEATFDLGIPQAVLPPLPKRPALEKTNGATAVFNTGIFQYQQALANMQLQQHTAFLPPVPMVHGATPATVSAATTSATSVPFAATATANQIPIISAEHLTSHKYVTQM
Particulars: CITED; value taken from previous report (ref 15 / ref 13); Table 5 lists the same value for r(CUG)exp.

For r(CUG)12x2, the Kd was 0.25 µM.
